Measurements as given in patent US20090263323A1.

Target: NADPH oxidase 3 (NOX3)
Test: cell-based or functional assay

p67^phox/NOXA2
PMA-induced superoxide generation of NOX3 (co-transfected HEK293 cells): 2 fold
